Substitutions are numbered along the chain they refer to. In names and notes the source's numbering stands.
T1: EsCas13d, nuclease-dead (Eubacterium siraeum, UniProt B0MS50, R295A;H300A;R849A;H854A)
T1 sequence: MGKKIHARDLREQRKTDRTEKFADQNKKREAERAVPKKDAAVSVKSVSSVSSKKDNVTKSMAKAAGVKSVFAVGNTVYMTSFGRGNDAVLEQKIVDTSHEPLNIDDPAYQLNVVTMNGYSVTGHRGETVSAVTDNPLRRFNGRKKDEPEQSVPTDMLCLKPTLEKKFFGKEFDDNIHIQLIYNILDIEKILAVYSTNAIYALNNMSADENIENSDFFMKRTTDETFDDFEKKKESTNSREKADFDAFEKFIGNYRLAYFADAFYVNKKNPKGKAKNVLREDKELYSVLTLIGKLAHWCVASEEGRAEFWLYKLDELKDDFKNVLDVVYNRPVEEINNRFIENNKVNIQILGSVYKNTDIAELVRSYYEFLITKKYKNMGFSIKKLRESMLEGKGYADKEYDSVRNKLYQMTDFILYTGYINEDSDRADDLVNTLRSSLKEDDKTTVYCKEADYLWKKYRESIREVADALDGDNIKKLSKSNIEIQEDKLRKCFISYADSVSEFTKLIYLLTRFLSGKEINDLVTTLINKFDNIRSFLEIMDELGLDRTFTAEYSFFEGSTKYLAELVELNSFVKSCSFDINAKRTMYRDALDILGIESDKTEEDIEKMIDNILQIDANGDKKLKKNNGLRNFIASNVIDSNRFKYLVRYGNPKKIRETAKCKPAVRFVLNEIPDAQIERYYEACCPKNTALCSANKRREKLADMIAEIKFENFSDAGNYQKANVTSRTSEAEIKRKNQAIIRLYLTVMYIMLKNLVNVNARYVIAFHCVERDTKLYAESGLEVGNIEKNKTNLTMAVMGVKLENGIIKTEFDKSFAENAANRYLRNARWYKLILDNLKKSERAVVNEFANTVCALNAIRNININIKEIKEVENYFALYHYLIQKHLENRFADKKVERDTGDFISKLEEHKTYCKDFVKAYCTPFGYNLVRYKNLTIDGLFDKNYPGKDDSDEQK

B1: target 1 insU 3' of 13,insU 3' of 2 (mixed)
RNA 1: CACCCGUGCAAAAAUGCAGGGGUCUAAAACUGAGCGGAUAACCUCUCUAUGG
RNA 2: GGGAAUGGAUCCACAUCUACGAAUUCGUACCAUAGAGAGUGUUAUCCGCUCUACCGAGAUCGGAAGAGCACACGU
B2: target 1 complement block 1-12 (mixed)
RNA 1: B1 RNA 1
RNA 2: GGGAAUGGAUCCACAUCUACGAAUUCGUACCAUAGAGAGCAAUAGGCGAGUCCGAGAUCGGAAGAGCACACGU
B3: target 1 insC 3' of 16,insG 3' of 6 (mixed)
RNA 1: B1 RNA 1
RNA 2: B1 RNA 2 with G37C, A38G, G39A, U40G, C49G, U50C, C51U, U52C
B4: target 1 insG 3' of 11,insA 3' of 8 (mixed)
RNA 1: B1 RNA 1
RNA 2: B1 RNA 2 with U40G, G41U, U42G, C46A, G48C, C49G, U50C, C51U, U52C
B5: target 1 complement block 2-12 (mixed)
RNA 1: B1 RNA 1
RNA 2: B2 RNA 2 with U51A
B6: target 1 A1U,C21A (mixed)
RNA 1: B1 RNA 1
RNA 2: GGGAAUGGAUCCACAUCUACGAAUUCGUACAAUAGAGAGGUUAUCCGCUCUCCGAGAUCGGAAGAGCACACGU
B7: target 1 C7G,A16U (mixed)
RNA 1: B1 RNA 1
RNA 2: B6 RNA 2 with A31C, A36U, C45G, U51A
B8: target 1 insU 3' of 13,insG 3' of 10 (mixed)
RNA 1: B1 RNA 1
RNA 2: B1 RNA 2 with A44G, U45A, C46U, G48C, C49G, U50C, C51U, U52C
B9: target 1 C7A,G12C (mixed)
RNA 1: B1 RNA 1
RNA 2: B6 RNA 2 with A31C, G40C, C45A, U51A
B10: target 1 G17A,C22A (mixed)
RNA 1: B1 RNA 1
RNA 2: B6 RNA 2 with C30A, A31C, G35A, U51A
B11: target 1 insG 3' of 9,insG 3' of 8 (mixed)
RNA 1: B1 RNA 1
RNA 2: GGGAAUGGAUCCACAUCUACGAAUUCGUACCAUAGAGAGGUUAGUGCCGCUCACCGAGAUCGGAAGAGCACACGU
B12: target 1 insC 3' of 15,insG 3' of 2 (mixed)
RNA 1: B1 RNA 1
RNA 2: B1 RNA 2 with A38C, G39A, U40G, U52G
B13: target 1 C6U,U10C (mixed)
RNA 1: B1 RNA 1
RNA 2: B6 RNA 2 with A31C, U42C, C46U, U51A
B14: target 1 insU 3' of 20,insU 3' of 5 (mixed)
RNA 1: B1 RNA 1
RNA 2: GGGAAUGGAUCCACAUCUACGAAUUCGUACCAUUAGAGAGGUUAUCCGUCUCACCGAGAUCGGAAGAGCACACGU
B15: target 1 insC 3' of 11,insG 3' of 7 (mixed)
RNA 1: B1 RNA 1
RNA 2: B11 RNA 2 with U42C, A43U, G44A, G46C, C47G
B16: target 1 insA 3' of 21,insG 3' of 18 (mixed)
RNA 1: B1 RNA 1
RNA 2: GGGAAUGGAUCCACAUCUACGAAUUCGUACCAAUAGGAGAGGUUAUCCGCUCACCGAGAUCGGAAGAGCACACGU
B17: target 1 insC 3' of 20,insA 3' of 7 (mixed)
RNA 1: B1 RNA 1
RNA 2: B14 RNA 2 with U33C, C47A, G48C, U49G
B18: target 1 C2A,C6U (mixed)
RNA 1: B1 RNA 1
RNA 2: B6 RNA 2 with A31C, C46U, C50A, U51A
B19: target 1 C6G,U10A (mixed)
RNA 1: B1 RNA 1
RNA 2: B6 RNA 2 with A31C, U42A, C46G, U51A
B20: target 1 insG 3' of 18,insG 3' of 4 (mixed)
RNA 1: B1 RNA 1
RNA 2: B14 RNA 2 with U34A, A35G, U49C, C50G
B21: target 1 C7A,A9U (mixed)
RNA 1: B1 RNA 1
RNA 2: B6 RNA 2 with A31C, A43U, C45A, U51A
B22: target 1 G12A,G17A (mixed)
RNA 1: B1 RNA 1
RNA 2: B6 RNA 2 with A31C, G35A, G40A, U51A
B23: target 1 A1G,C21A (mixed)
RNA 1: B1 RNA 1
RNA 2: B6 RNA 2 with U51G
B24: target 1 insA 3' of 15,insA 3' of 13 (mixed)
RNA 1: B1 RNA 1
RNA 2: B16 RNA 2 with A33U, U34A, A35G, G36A, G39A, A40G, G41A
B25: target 1 complement block 3-6 (mixed)
RNA 1: B1 RNA 1
RNA 2: B6 RNA 2 with A31C, C46G, G47C, C48G, U49A, U51A
B26: target 1 insC 3' of 3,insA 3' of 2 (mixed)
RNA 1: B1 RNA 1
RNA 2: B11 RNA 2 with G44U, U45C, G46C, C47G, G49U, U51C, C52A
B27: target 1 G13A,U19G (mixed)
RNA 1: B1 RNA 1
RNA 2: B6 RNA 2 with A31C, U33G, G39A, U51A
B28: target 1 C2U,U3C (mixed)
RNA 1: B1 RNA 1
RNA 2: B6 RNA 2 with A31C, U49C, C50U, U51A
B29: target 1 C4G,U8A (mixed)
RNA 1: B1 RNA 1
RNA 2: B6 RNA 2 with A31C, U44A, C48G, U51A
B30: target 1 U3A,A9C (mixed)
RNA 1: B1 RNA 1
RNA 2: B6 RNA 2 with A31C, A43C, U49A, U51A
B31: target 1 A9G,G13U (mixed)
RNA 1: B1 RNA 1
RNA 2: B6 RNA 2 with A31C, G39U, A43G, U51A
B32: target 1 C2G,G13U (mixed)
RNA 1: B1 RNA 1
RNA 2: B6 RNA 2 with A31C, G39U, C50G, U51A
B33: target 1 insG 3' of 22,insC 3' of 13 (mixed)
RNA 1: B1 RNA 1
RNA 2: B16 RNA 2 with C31G, A32C, G37A, A38G, G39A, A40G, G41C

molecular target: T1, EsCas13d, nuclease-dead; assay: crRNA (strand 1, pre-loaded); Mg2+; 40 mM Tris-HCl pH 7.5, 150 mM NaCl, 6 mM MgCl2, 1 mM DTT, 0.1% Tween-20, 0.2 mg/ml BSA; 25 C; 10 min per concentration, then washed; details: tags: His6-TwinStrep-SUMO cleaved; N-terminal SNAP kept (SNAP-Surface 488); label: 3' end held by stalled T7 RNA polymerase

Row | Binder | Kd
1 | B1 | 16.6 ± 2.1 nM
2 | B2 | 19.6 ± 1 nM
3 | B3 | ~100 nM
4 | B4 | 40.5 ± 2.5 nM
5 | B5 | 23.4 ± 1.6 nM
6 | B6 | 25.3 ± 3.1 nM
7 | B7 | 53 ± 4 nM
8 | B8 | 63 ± 23 nM
9 | B9 | 16.4 ± 1.1 nM
10 | B10 | 57 ± 7 nM
11 | B11 | 17.2 ± 1.3 nM
12 | B12 | 17.9 ± 1.3 nM
13 | B13 | 19.7 ± 0.8 nM
14 | B14 | 24 ± 4 nM
15 | B15 | 23.8 ± 1.5 nM
16 | B16 | 77 ± 20 nM
17 | B17 | 7.49 ± 0.35 nM

Row | Binder | Kd
18 | B18 | 5.88 ± 0.27 nM
19 | B19 | 8.6 ± 0.6 nM
20 | B20 | 37.5 ± 3.1 nM
21 | B21 | 7.5 ± 0.4 nM
22 | B22 | 30.8 ± 3.2 nM
23 | B23 | 27 ± 4 nM
24 | B24 | 5.63 ± 0.28 nM
25 | B25 | 5.84 ± 0.3 nM
26 | B26 | 13.6 ± 1.2 nM
27 | B27 | 80 ± 40 nM
28 | B28 | 16.6 ± 1.7 nM
29 | B29 | 7.4 ± 0.4 nM
30 | B30 | 14.6 ± 2 nM
31 | B31 | 53 ± 6 nM
32 | B32 | ~60 nM
33 | B33 | 44 ± 6 nM
